What all share (assay): BLI; Octet Red96, 96 well plates, PBS-T buffer (1X PBS, 0.05% tween-20); 120 µM biotinylated peptide attached to the sensor; analytes (SIRT6/SIRT6 mutants) from 0.18 to 5.5 µM; also run with cofactors (5 mM Mg2+, Zn2+, ATP, ADP, AMP, cAMP, NAD+)
What all share (conditions): both partners purified

One experiment addresses T1, SIRT6 H133Y (human, UniProt Q8N6T7 1-355, H133Y).
T1 construct: human SIRT6, full length (1-355aa), pET28a-SIRT6H133Y; also called dSIRT6; dSIRT6 (H133Y); source: E. coli ArcticExpress (DE3), purified (Ni Sepharose); not shown: His-tag, N-terminal, kept; Flag, C-terminal, kept

The target of the next experiment is T2, SIRT6 S56Y (human, UniProt Q8N6T7 1-355, S56Y).
T2 construct: human SIRT6, full length (1-355aa), pET28a-SIRT6S56Y; also called dSIRT6 variant; source: E. coli ArcticExpress (DE3), purified (Ni Sepharose); not shown: His-tag, N-terminal, kept; Flag, C-terminal, kept
T2 sequence (Q8N6T7 whole entry S56Y): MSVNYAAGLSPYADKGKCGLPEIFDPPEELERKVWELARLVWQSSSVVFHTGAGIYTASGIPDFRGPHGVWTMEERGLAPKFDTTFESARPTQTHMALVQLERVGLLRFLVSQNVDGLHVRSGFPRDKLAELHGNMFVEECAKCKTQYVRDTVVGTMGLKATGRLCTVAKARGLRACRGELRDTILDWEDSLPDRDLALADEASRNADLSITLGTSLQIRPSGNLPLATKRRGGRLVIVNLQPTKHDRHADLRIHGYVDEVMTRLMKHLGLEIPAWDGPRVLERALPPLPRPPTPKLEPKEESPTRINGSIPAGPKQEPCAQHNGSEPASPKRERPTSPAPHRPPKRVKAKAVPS

Experiment [1] deals with T3, Wild-type SIRT6 (Sirtuin 6) (human, UniProt Q8N6T7 1-355).
T3 construct: human SIRT6, full length (1-355aa), from pUC57-SIRT6 into pET28a; no tag cleavage is described; also called SIRT6 WT; source: E. coli ArcticExpress (DE3), purified (Ni Sepharose); not shown: His-tag, N-terminal, kept; Flag, C-terminal, kept
T3 sequence (Q8N6T7 whole entry): as the sequence (Q8N6T7 whole entry S56Y) above, with Y56S counted along it

The next experiment addresses T4, SIRT6 R65A (human, UniProt Q8N6T7 1-355, R65A).
T4 construct: human SIRT6, full length (1-355aa), pET28a-SIRT6R65A; also called dSIRT6 variant; source: E. coli ArcticExpress (DE3), purified (Ni Sepharose); not shown: His-tag, N-terminal, kept; Flag, C-terminal, kept

Where no end group is shown, it is not given here. The star is where a group is joined. Biotin = O=C1N[C@H]2[C@H](CS[C@H]2CCCCC(=O)*)N1; Myristoyl = CCCCCCCCCCCCCC(=O)*

T1 sequence (Q8N6T7 whole entry H133Y): as the sequence (Q8N6T7 whole entry S56Y) above, with Y56S, H133Y counted along it
T4 sequence (Q8N6T7 whole entry R65A): as the sequence (Q8N6T7 whole entry S56Y) above, with Y56S, R65A counted along it

B1: B-H3K9^Myr-5R (biotin-KQTARK^MyrSTGGKARRRRR) (peptide)
peptide: Biotin-KQTARK(Myristoyl)STGGKARRRRR
notes: histone H3 N-terminal stretch around K9; five arginine residues added at the C-terminus so that the peptide is soluble in water; also called myristoylated peptide; source: synthetic peptide (Boster Biological Technology)
The term Kd denotes the concentration at which binding is half-saturated. The low end stands for tighter binding, the high end for weaker binding. As for B1, the binding result with SIRT6 H133Y, in the experiment with SIRT6 S56Y and in the experiment with SIRT6 R65A was “binds” in each case. This molecule also gave a Kd in experiment [1] of 8.1 ± 0.96 µM.

Values taken from article PMC12591191, “SIRT6 Lysine‐Demyristoylates ATF2 to Ameliorate Vascular Injury via PRKCD/VE‐Cadherin Pathway Regulating Vascular Endothelial Barrier” (Advanced Science, 2025).
